Measurements from CN111378037A.

Molecular target: Human IL33-his (Human IL33 (NP_254274.1) Ser112-Thr270 with a C-terminal 6-histidine tag, expressed in E. coli) (human) (UniProt O95760)
Experiment: cell-based or functional assay

Chain of UniProt O95760 (O95760 other isoform, or with tags, fused parts or gaps limits assumed, form in doubt): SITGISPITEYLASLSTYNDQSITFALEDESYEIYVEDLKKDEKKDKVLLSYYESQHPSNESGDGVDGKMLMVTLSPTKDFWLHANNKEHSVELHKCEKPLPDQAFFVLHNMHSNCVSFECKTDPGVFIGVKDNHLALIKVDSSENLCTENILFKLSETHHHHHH

IC50 of inhibition of IL-5 production by KU812 cells stimulated with IL33: 0.51 µg/mL
Substance: 对照抗体 ANB020 (antibody)
